Laboratory results reported in the supplement of paper PMC10899765.

Each sequence was assayed on MCF10A (assay: one-nucleolus phenotype percent effect (relative to siNT 0% and siNOL11 100%); higher = more cells with one nucleolus (ribosome biogenesis inhibition)). Conditions: 20 nM; 72 h.
Method: (§1)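 After 72 h, cells were fixed and stained with Hoechst and anti-fibrillarin, and nucleoli per nucleus were counted with CellProfiler. Values are plate-adjusted percent effect for the one-nucleolus and 5+ nucleoli phenotypes, normalised to siNT (0%) and to the positive controls siNOL11 or siKIF11 (100%), as the mean of biological triplicates. Percent viability is the nuclei count relative to siNT.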

| Sequence | one-nucleolus phenotype percent effect [%] |
| --- | --- |
| UGCCCUGCCUGUUUUCUCCUUU [hsa-miR-3173-5p] | -24.3 |
| GGCUGGAGCGAGUGCAGUGGUG [hsa-miR-3135b] | 9.78 |
| ACACAGUGCUUCAUCCACUACU [hsa-miR-3681-3p] | -4.5 |
| CAGGGAGAAGGUGGAAGUGCAGA [hsa-miR-6760-5p] | -0.928 |
| AUGGAUAAGGCUUUGGCUU [hsa-miR-1261] | 24.4 |
| CGUCUUACCCAGCAGUGUUUGG [hsa-miR-200c-5p] | -5.6 |
| CUUUGAGCACAUGAGCAGACGGA [hsa-miR-8055] | -6.93 |
| UUCAUGAACUGGGUCUAGCUUGG [hsa-miR-7154-5p] | -15.2 |
| AUUAAGGACAUUUGUGAUUGAU [hsa-miR-4477b] | -4.92 |
| GCUGCACCGGAGACUGGGUAA [hsa-miR-3130-3p] | -5.32 |
| GAGGCUGAGCUGAGGAG [hsa-miR-4478] | 35.1 |
| CAGAAGGGGAGUUGGGAGCAGA [hsa-miR-3154] | 46.1 |
| UCGUGGCCUGGUCUCCAUUAU [hsa-miR-1204] | -7.25 |
| UGUAGUUGUAUUGUAUUGCCAC [hsa-miR-4703-3p] | 6.74 |
| GGUGGCCCGGCCGUGCCUGAGG [hsa-miR-663b] | -23.6 |
| GCGGUGGGGCCGGAGGGGCGU [hsa-miR-6786-5p] | -24.9 |
| AAAGGUAAUUGCAGUUUUUCCC [hsa-miR-548ai] | -23.8 |
| UCUGUAUUCUCCUUUGCCUGCAG [hsa-miR-4742-3p] | 6.5 |
| UGAUGGAGCUGGGAAUACUCUG [hsa-miR-8082] | 21.8 |
| UAAGUGCUUCCAUGUUUCAGUGG [hsa-miR-302c-3p] | -16.2 |

| Sequence | one-nucleolus phenotype percent effect [%] |
| --- | --- |
| AAAAGUAAUUGCGGUUUUUGCC [hsa-miR-548c-5p] | -19.1 |
| AUUGGACUGCUGAUGGCCCGU [hsa-miR-4529-3p] | 19.5 |
| AAGCAUUCUUUCAUUGGUUGG [hsa-miR-1179] | 1.48 |
| AUGCGGACCUGGGUUAGCGGAGU [hsa-miR-4754] | 47.4 |
| AAAGGUCAUUGUAAGGUUAAUGC [hsa-miR-3974] | 63.7 |
| UUGGGAGGGAAGACAGCUGGAGA [hsa-miR-6780a-5p] | 55 |
| UUGGCCACAAUGGGUUAGAAC [hsa-miR-588] | 9.67 |
| UUGCCAUACAUAGACUUUAUU [hsa-miR-5590-5p] | 33.6 |
| CCUAUUCUUGGUUACUUGCACG [hsa-miR-26a-1-3p] | 4.57 |
| UGACCCCUUCUGUCUCCCUAG [hsa-miR-6846-3p] | -13.6 |
| UUAGUCUCAUGAUCAGACACA [hsa-miR-4474-5p] | -23.4 |
| CACAAGGUAUUGGUAUUACCU [hsa-miR-624-3p] | 71 |
| UCUCACACAGAAAUCGCACCCGU [hsa-miR-342-3p] | -2.78 |
| AAAGUGCAUCUUUUUAGAGGAU [hsa-miR-519c-3p] | -25.5 |
| ACCAGCGCGUUUUCAGUUUCAU [hsa-miR-4738-5p] | 7.61 |
| GCCCCUGGGCCUAUCCUAGAA [hsa-miR-331-3p] | 6.3 |
| UGGAGGAGAAGGAAGGUGAUG [hsa-miR-765] | 26.5 |
| UCGACCGGACCUCGACCGGCU [hsa-miR-1307-5p] | -17.3 |
| CCAAAUCUUGAUCAGAAGCCU [hsa-miR-4762-5p] | -8.43 |
| CGUGGAUAUUCCUUCUAUGUUU [hsa-miR-376b-5p] | 9.58 |

| Sequence | one-nucleolus phenotype percent effect [%] |
| --- | --- |
| ACAGACUUGCUGUGAUGUUCA [hsa-miR-499b-5p] | 2.65 |
| GUUUAACCUUUUGCCUGUUGG [hsa-miR-552-5p] | -29.8 |
| AUAAUACAACCUGCUAAGUGCU [hsa-miR-374c-5p] | 26.4 |
| UAGUUCUUCCCUUUGCCCAAUU [hsa-miR-5584-3p] | 5.26 |
| ACGGUGCUGGAUGUGGCCUUU [hsa-miR-1250] | 57.9 |
| CACACACUGCAAUUACUUUUGC [hsa-miR-603] | -5.16 |
| ACAGUAGUCUGCACAUUGGUUA [hsa-miR-199a-3p] | -13.9 |
| CAAGGGACCAAGCAUUCAUUAU [hsa-miR-4475] | 7.86 |
| UGGUCUAGGAUUGUUGGAGGAG [hsa-miR-601] | 22.9 |
| UGGAUUUCUUUGUGAAUCACCA [hsa-miR-876-5p] | -21.7 |
| AUGGAGCUGGAACCAGAUCAGGC [hsa-miR-6874-5p] | 41.9 |
| CAGCCGCCGCCUGUCUCCACAG [hsa-miR-6746-3p] | -1.13 |
| UUCAUUCGGCUGUCCAGAUGUA [hsa-miR-1298] | -24.3 |
| UGCUGUAUUGUCAGGUAGUGA [hsa-miR-4999-5p] | -7.82 |
| UGGGGGAGAUGGGGGUUGA [hsa-miR-6870-5p] | 15.2 |
| CCCCUGGGGCUGGGCAGGCGGA [hsa-miR-6791-5p] | -13.7 |
| AGAAGGAAAUUGAAUUCAUUUA [hsa-miR-1252] | -13.6 |
| UAACUGGUUGAACAACUGAACC [hsa-miR-582-3p] | -29.8 |
| UUUCCCUUUCCAUCCUGGCAG [hsa-miR-5006-3p] | 4.84 |

Each sequence was assayed on MCF10A (assay: 5+ nucleoli phenotype percent effect (relative to siNT 0% and siKIF11 100%); higher = more cells with five or more nucleoli). Conditions: 20 nM; 72 h.
Method: as §1

| Sequence | 5+ nucleoli phenotype percent effect [%] |
| --- | --- |
| UGCCCUGCCUGUUUUCUCCUUU [hsa-miR-3173-5p] | 35.2 |
| GGCUGGAGCGAGUGCAGUGGUG [hsa-miR-3135b] | -9.26 |
| ACACAGUGCUUCAUCCACUACU [hsa-miR-3681-3p] | -3.88 |
| CAGGGAGAAGGUGGAAGUGCAGA [hsa-miR-6760-5p] | 29.9 |
| AUGGAUAAGGCUUUGGCUU [hsa-miR-1261] | -12.9 |
| CGUCUUACCCAGCAGUGUUUGG [hsa-miR-200c-5p] | -1.15 |
| CUUUGAGCACAUGAGCAGACGGA [hsa-miR-8055] | -14.2 |
| UUCAUGAACUGGGUCUAGCUUGG [hsa-miR-7154-5p] | -0.807 |
| AUUAAGGACAUUUGUGAUUGAU [hsa-miR-4477b] | 7 |
| GCUGCACCGGAGACUGGGUAA [hsa-miR-3130-3p] | 26.7 |
| GAGGCUGAGCUGAGGAG [hsa-miR-4478] | -17.6 |
| CAGAAGGGGAGUUGGGAGCAGA [hsa-miR-3154] | -26.4 |
| UCGUGGCCUGGUCUCCAUUAU [hsa-miR-1204] | 2.14 |
| UGUAGUUGUAUUGUAUUGCCAC [hsa-miR-4703-3p] | -29.5 |
| GGUGGCCCGGCCGUGCCUGAGG [hsa-miR-663b] | 47.3 |
| GCGGUGGGGCCGGAGGGGCGU [hsa-miR-6786-5p] | 31.9 |
| AAAGGUAAUUGCAGUUUUUCCC [hsa-miR-548ai] | 16.1 |
| UCUGUAUUCUCCUUUGCCUGCAG [hsa-miR-4742-3p] | 3.24 |
| UGAUGGAGCUGGGAAUACUCUG [hsa-miR-8082] | -14.2 |
| UAAGUGCUUCCAUGUUUCAGUGG [hsa-miR-302c-3p] | 52.1 |
| AAAAGUAAUUGCGGUUUUUGCC [hsa-miR-548c-5p] | 16.9 |
| AUUGGACUGCUGAUGGCCCGU [hsa-miR-4529-3p] | -12.1 |
| AAGCAUUCUUUCAUUGGUUGG [hsa-miR-1179] | 0.87 |
| AUGCGGACCUGGGUUAGCGGAGU [hsa-miR-4754] | -38.9 |
| AAAGGUCAUUGUAAGGUUAAUGC [hsa-miR-3974] | -42 |
| UUGGGAGGGAAGACAGCUGGAGA [hsa-miR-6780a-5p] | -30.2 |
| UUGGCCACAAUGGGUUAGAAC [hsa-miR-588] | 11.2 |
| UUGCCAUACAUAGACUUUAUU [hsa-miR-5590-5p] | -33.2 |
| CCUAUUCUUGGUUACUUGCACG [hsa-miR-26a-1-3p] | -5.8 |
